The results in this text go back to patent US20090029370, “REAL TIME NUCLEIC ACID DETECTION IN VIVO USING PROTEIN COMPLEMENTATION” (TRUSTEES OF BOSTON UNIVERSITY, published 2009).

What all share (details): protein: synthetic; tags: custom-synthesized peptide
For data set [1], the target named is T1, Rex peptide (printed HIV-1 Rex in tables, HTLV-1 Rex in text) (Human T-cell leukemia virus type 1?).
T1 chain: MPKTRRRPRRSQRKRP
Kind of data set: EMSA; 50 mM Tris-HCl pH 8.0, 50 mM KCl, 30 C. (In general: Mobility shift assays separate free from complexed probe on a gel.)

For the next data set, the target named is T2, λN peptide (Bacteriophage lambda, UniProt P03045 SEQ:1-22).
T2 chain: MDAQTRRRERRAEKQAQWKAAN
Kind of data set: EMSA; 50 mM Tris-HCl pH 8.0, 50 mM KCl, 30 C.

Data set [2] has as its target Rev peptide (printed HTLV-1 Rev). Kind of data set: EMSA; cross-reactivity; 50 mM Tris-HCl pH 8.0, 50 mM KCl, 30 C.
In data set [3] the target is T1, Rex peptide (printed HIV-1 Rex in …). Kind of data set: EMSA; 50 mM Tris-HCl pH 8.0, 50 mM KCl, 30 C, ethidium bromide stain. The source says:
Experiments in vitro to choose aptamer-peptide pairs. Based on available data we chose three peptide/aptamer pairs; (i) […]; (ii) Bacterophage λN; and (iii) […] (see Table 1) and tested their binding affinity with cognate partner and cross-reactivity with two other RNA aptamers in vitro. We used non-radioactive gel-shift assay under conditions when fixed concentrations of RNA aptamer were allowed to form complexes with increasing ARM-peptide concentrations. We quantified the amount of the unbound RNA aptamer and the amount of the shifted complex (Table 1). […] At the same time, […] peptide did show some cross-reactivity with the two non-matched RNA aptamers.
In Vitro Gel-Shift Assay. RNAs were first denatured by heating at 95° C. in buffer (50 mM pH 8.0 Tris-HCl, 50 mM KCl) for 3 minutes and then slowly cooled to room temperature to renature the RNAs. Renatured RNAs and peptides were mixed in a common buffer (50 mM Tris-HCl, pH 8.0, 50 mM KCl) at 30° C. for 15 minutes. Peptide-RNA aptamer complexes were analyzed using gel electrophoresis with 15% TBE gel. RNA aptamers and peptide-RNA aptamer complexes were stained with ethidium bromide.

As for GGCUGGACUCGUACUUCGGUACUGGAGAAACAGCC (ssRNA) [anti-Rev aptamer], the binding result (in data set [1]; with λN peptide) was “no binding” in each case.

With GGAUCCGGGCCCUGAAGAAGGGCCCUUUCCUUU (ssRNA) [λN aptamer (boxB)], the values for the binding result (in data set [1]; with λN peptide; in data set [2]) were “no binding”, “binds” and “binds”, respectively.

UAGGCGACGGUACGCAAGUACUCUUGCGCCGGCCUA (ssRNA) [anti-Rex aptamer]: the results for the binding result (in data set [3]; with λN peptide) were “binds” and “no binding”, respectively.
